Laboratory results reported in US9340580B2, “Peptide with multiple epitopes” (priority 2007, dated 2016).
Values joined by “and” are separate entries in the source; they are usually repeats but may differ in a detail not shown here. Identical values can stand only once. Like-named read-outs stand apart in the source and are kept apart here. Where a SMILES comes first, the peptide text is derived from it.

Columns and labels:
[1] = precipitation in the aqueous solution of the binding assay; format: physicochemical; conditions: read-out: Precipitation in assay: lowest concentration at which an insoluble white precipitate is seen
From the text: (§1) This is a characteristic of promiscuous HLA-DRB1* binders.

DRB1*1101 = DRB1*1101 (Homo sapiens, UniProt P01903+P01911, A100R/A169T/A87E/I96F/K41T/L162R/M171V/P40S/Q125H/Q178H/Q39Y/Q99D/R42S/S66Y/T262R/V115G/W38E); experiment: competitive MHC class II binding assay; conditions: control peptide Influenza haemagglutinin 307-319
From the text: as §1

DRB1*0701 = DRB1*0701 (Homo sapiens, UniProt P01903+P01911, A100R/A102G/A103Q/D57E/D86V/E43K/F76Y/K127E/L162R/M171V/P40G/Q125H/Q99D/R33Q/R42Y/R54Q/S133A/S66F/T210M/V115G/Y107V/Y59L/Y89S); experiment: competitive MHC class II binding assay; conditions: control peptide Influenza haemagglutinin 307-319
From the text: as §1

[2] = solubility pre-screen in an aqueous, acidic milieu; format: physicochemical
DQA1*0102/DQB1*0602 = DQA1*0102/DQB1*0602 (Homo sapiens, UniProt P01909+P01920, A157G/A45G/C70R/E118A/E183D/E77G/F83G/G63E/H151Q/H199R/H252R/H253Q/I129T/I235V/I88M/INS77G/K197Q/L117V/L119F/L178F/L71W/L74F/L85Q/L91A/L98M/N214S/P87R/Q116E/Q76K/R102G/R240Q/R75S/R78G/S102Y/S185I/S41F/S97I/T121G/T122I/T172A/T86R/V229M/V68A/V73E/Y34C/Y41F/Y58L); experiment: competitive MHC class II binding assay; conditions: control peptide Human Insulin B 1-15
Protocol: as §1
In addition, to identify lower affinity binders, the assay was also carried out under less stringent conditions. All the Der p binding peptides were seen to have a high ratio when tested against this allotype, showing they were low affinity binders compared to the control peptide. The DQA1*0102/DQB1*0602 binding assay uses a peptide from the B-chain of human insulin which is of lower affinity compared to those used in the DR assays. This dictates that the DQ assay is very sensitive and tends to produce very low ratio values for the strongest binders to this MHC Class II allotype. This sensitivity also accounts for the relatively higher number of DQ binding peptides within the panel screened. Finally, on closer analysis, the peptides identified as ligands for the DRB1*0101,*0401, *0701 superfamily, are found to incorporate a motif that is characteristic of promiscuous binders to this family of allotypes where: P1=Y, F, W, L, I, V, or M (Large aromatic or hydrophobic residue), P6=S, T, C, A, P, V, I, M (small, non-charged residue)

DRB1*0401 = DRB1*0401 (Homo sapiens, UniProt P01903+P01911, A100K/A169T/F76Y/I96L/K127E/L162R/M171V/N62H/P40V/Q125Y/R42H/S133A/S149N/S66Y/V115G/V209L/W38E); experiment: competitive MHC class II binding assay; conditions: control peptide Influenza haemagglutinin 307-319
From the text: as §1

[3] = system: human MHC class II allotypes; experiment: competitive MHC class II binding assay, statements over the panel; conditions: peptides of reduced purity
From the text: as §1
This is of significance as purities were seen to vary from 60-90%. This would have a considerable effect on the ability of a peptide to compete if it is relatively impure. […] Therefore, if purity is taken into consideration, they may in fact have an equivalent affinity to a peptide of a higher purity.

[4] = target: T1, human MHC class II allotype HLA-DRB1*1101 (human)
T1 chain 1: not shown
T1 chain 2: not shown

[5] = target: T2, human MHC class II allotype HLA-DRB1*1501 (human)
T2 chain 1: not shown
T2 chain 2: not shown

[6] = target: T3, human MHC class II allotype HLA-DRB1*0701 (human)
T3 chain 1: not shown
T3 chain 2: not shown

[7] = target: T4, human MHC class II allotype DQA1*0102/DQB1*0602 (human), P01920
T4 chain 1: not shown
T4 chain 2: not shown

[8] = target: T5, human MHC class II allotype HLA-DRB1*1301 (human); experiment: competitive MHC class II binding assay; competitor control peptide HLA-DQB1*0603 21-36
T5 construct: Source and construct of the MHC protein in the assay are not described

[9] = target: T6, human MHC class II allotype HLA-DRB1*0701 (human); experiment: competitive MHC class II binding assay; competitor control peptide influenza haemagglutinin 307-319;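 also: each test peptide was scored on how well it displaces the known control binder from each human MHC class II allotype studied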
T6 construct: Source and construct of the MHC protein in the assay are not described

[10] = target: T7, human MHC class II allotype HLA-DRB1*1101 (human); experiment: as above
T7 construct: Source and construct of the MHC protein in the assay are not described

[11] = target: T8, human MHC class II allotype HLA-DRB1*1501 (human); experiment: competitive MHC class II binding assay; competitor control peptide myelin basic protein 85-99
T8 construct: Source and construct of the MHC protein in the assay are not described

[12] = target: T8, human MHC class II allotype …; experiment: competitive MHC class II binding assay, high stringency screen; competitor control peptide myelin basic protein 85-99

CSCC[C@H](NC(=O)[C@H](CO)NC(=O)[C@@H](N)C(C)C)C(=O)N[C@@H](CCC(=O)O)C(=O)N[C@@H](Cc1ccc(O)cc1)C(=O)N[C@@H](CC(=O)O)C(=O)N[C@@H](CC(C)C)C(=O)N[C@@H](C)C(=O)N[C@@H](Cc1ccc(O)cc1)C(=O)N[C@@H](CCCCN)C(=O)N[C@@H](CC(C)C)C(=O)NCC(=O)N[C@@H](CC(=O)O)C(=O)N[C@@H](CC(C)C)C(=O)N[C@@H](Cc1c[nH]cn1)C(=O)O [HDM40A] (H-VSMEYDLAYKLGDLH-OH; N-terminus and C-terminus assumed)
solubility [1]: 1000 µM and 1800 µg/mL
relative binding: ratio of peptide IC50 to control peptide IC50, DRB1*1101 (DRB1*1101): 6
relative binding: ratio of peptide IC50 to control peptide IC50, DRB1*0701 (DRB1*0701): 2.29
Solubility test [2]: YES

CSCC[C@H](NC(=O)[C@H](CO)NC(=O)[C@@H](NC(=O)[C@@H](NC(=O)[C@H](CC(=O)O)NC(=O)[C@H](CC(=O)O)NC(=O)[C@@H](N)Cc1c[nH]cn1)C(C)C)C(C)C)C(=O)N[C@@H](CCC(=O)O)C(=O)N[C@@H](Cc1ccc(O)cc1)C(=O)N[C@@H](CC(=O)O)C(=O)N[C@@H](CC(C)C)C(=O)N[C@@H](C)C(=O)N[C@@H](Cc1ccc(O)cc1)C(=O)N[C@@H](CCCCN)C(=O)N[C@@H](CC(C)C)C(=O)O [HDM39A] (H-HDDVVSMEYDLAYKL-OH; N-terminus and C-terminus assumed)
solubility [1]: 1000 µM and 1800 µg/mL
relative binding: ratio of peptide IC50 to control peptide IC50, DQA1*0102 DQB1*0602 (DQA1*0102/DQB1*0602): 0.1
relative binding: ratio of peptide IC50 to control peptide IC50, DRB1*0401 (DRB1*0401): 76.19
relative binding: ratio of peptide IC50 to control peptide IC50, DRB1*0701 (DRB1*0701): 0.71
Solubility test [2]: YES

DGLEVDVPGIDPNACH (listed as Dermatophagoides pteronyssinus) [HDM23A]
binding affinity in the competition assay (in words) [3]: low affinity binding
Solubility test [2]: YES

CIIHRGKPFQLEA (modifications not checked) [HDM20]
ratio of its own IC50 to that of the control peptide [4]: 28
ratio of its own IC50 to that of the control peptide [5]: 242
ratio of its own IC50 to that of the control peptide [6]: 1.1
ratio of its own IC50 to that of the control peptide [7]: 2.37

LDMRNIQVRGLKQ (Synthetic peptide, 70.3% purity) [HDM33]
ratio of its own IC50 to that of the control peptide [8]: 263
ratio of its own IC50 to that of the control peptide [9]: 46.5
ratio of its own IC50 to that of the control peptide [10]: 41.5

RNIQVRGLKQMKRVG (Synthetic peptide, 74.7% purity) [HDM34]
ratio of its own IC50 to that of the control peptide [8]: 3.7
ratio of its own IC50 to that of the control peptide [11]: 769
ratio of its own IC50 to that of the control peptide [10]: 3.38

B1: Fel d 1 peptide EQVAQYKALPVVLENA (peptide)
peptide: EQVAQYKALPVVLENA
notes: Said to have been tested in an earlier study
ratio of its own IC50 to that of the control peptide [12]: 0.97
